Key:
[1] = target: T1, 23A SMARCAD1, dephosphorylated (human) (UniProt Q9H4L7); assay: fluorescence polarization; settings: FP: 50 mM HEPES pH 7.5, 2 mM DTT, 10% glycerol, 0.01% CHAPS, 0.01% NP-40, no added salt stated, room temperature 30 min, 10 nM nucleosome or DNA, 0-5 uM …
T1 sequence: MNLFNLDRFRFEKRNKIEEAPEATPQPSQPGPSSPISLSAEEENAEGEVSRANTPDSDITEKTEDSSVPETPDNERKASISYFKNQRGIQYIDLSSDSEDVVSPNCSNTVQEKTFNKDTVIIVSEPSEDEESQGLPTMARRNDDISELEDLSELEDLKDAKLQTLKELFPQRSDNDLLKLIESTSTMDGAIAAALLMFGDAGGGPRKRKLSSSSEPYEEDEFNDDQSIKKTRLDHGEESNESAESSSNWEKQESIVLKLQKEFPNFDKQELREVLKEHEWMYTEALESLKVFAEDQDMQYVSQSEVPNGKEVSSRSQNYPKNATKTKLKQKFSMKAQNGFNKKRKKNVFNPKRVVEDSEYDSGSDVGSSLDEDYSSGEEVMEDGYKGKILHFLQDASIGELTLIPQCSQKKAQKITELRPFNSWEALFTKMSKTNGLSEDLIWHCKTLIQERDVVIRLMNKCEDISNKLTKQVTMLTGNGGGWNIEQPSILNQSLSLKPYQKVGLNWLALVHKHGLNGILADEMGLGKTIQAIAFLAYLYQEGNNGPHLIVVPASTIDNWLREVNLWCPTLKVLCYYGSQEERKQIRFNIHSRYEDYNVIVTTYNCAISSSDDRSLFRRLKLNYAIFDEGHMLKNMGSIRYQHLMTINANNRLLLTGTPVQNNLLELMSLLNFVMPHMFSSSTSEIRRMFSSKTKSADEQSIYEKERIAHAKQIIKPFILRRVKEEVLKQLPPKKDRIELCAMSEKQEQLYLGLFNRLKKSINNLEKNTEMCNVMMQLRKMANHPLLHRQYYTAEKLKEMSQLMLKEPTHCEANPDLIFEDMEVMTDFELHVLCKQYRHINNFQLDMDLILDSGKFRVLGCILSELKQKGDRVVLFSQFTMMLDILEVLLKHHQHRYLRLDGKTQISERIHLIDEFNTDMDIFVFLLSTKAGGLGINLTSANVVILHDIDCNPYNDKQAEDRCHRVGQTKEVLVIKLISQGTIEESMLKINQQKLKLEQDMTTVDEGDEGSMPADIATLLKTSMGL

[2] = target: T2, 23A SMARCAD1, phosphorylated (human) (UniProt Q9H4L7); assay: fluorescence polarization; settings: FP: 50 mM HEPES pH 7.5, 2 mM DTT, 10% glycerol, 0.01% CHAPS, 0.01% NP-40, no added salt stated, room temperature 30 min, 10 nM nucleosome or DNA, 0-5 uM …
T2 sequence: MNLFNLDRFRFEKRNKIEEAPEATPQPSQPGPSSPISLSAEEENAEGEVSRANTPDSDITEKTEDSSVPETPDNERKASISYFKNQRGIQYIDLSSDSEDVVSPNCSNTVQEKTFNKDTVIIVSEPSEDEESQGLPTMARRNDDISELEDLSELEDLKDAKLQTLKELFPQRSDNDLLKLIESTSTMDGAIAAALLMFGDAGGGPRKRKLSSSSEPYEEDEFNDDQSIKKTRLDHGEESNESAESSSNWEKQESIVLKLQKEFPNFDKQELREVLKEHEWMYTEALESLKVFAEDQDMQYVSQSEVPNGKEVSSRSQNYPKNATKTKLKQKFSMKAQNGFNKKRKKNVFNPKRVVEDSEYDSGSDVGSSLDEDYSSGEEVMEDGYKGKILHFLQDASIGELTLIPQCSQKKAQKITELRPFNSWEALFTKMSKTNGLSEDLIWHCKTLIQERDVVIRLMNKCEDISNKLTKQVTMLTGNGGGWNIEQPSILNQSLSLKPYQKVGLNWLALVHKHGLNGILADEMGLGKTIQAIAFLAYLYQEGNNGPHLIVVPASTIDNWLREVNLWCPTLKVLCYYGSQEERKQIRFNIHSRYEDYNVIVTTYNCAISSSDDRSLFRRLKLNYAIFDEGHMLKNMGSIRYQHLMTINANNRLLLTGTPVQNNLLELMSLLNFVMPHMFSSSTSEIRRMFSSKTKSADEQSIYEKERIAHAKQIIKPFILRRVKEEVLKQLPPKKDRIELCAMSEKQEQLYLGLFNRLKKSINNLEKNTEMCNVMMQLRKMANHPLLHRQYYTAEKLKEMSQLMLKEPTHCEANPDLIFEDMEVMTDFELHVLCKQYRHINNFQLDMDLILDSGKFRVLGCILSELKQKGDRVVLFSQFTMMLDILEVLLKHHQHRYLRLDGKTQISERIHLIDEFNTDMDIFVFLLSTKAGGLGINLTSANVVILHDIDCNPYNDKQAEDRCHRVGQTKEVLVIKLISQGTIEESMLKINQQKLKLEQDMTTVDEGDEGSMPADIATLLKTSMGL

[3] = target: T3, Δ350 SMARCAD1, dephosphorylated V974A;del1-350 (human) (UniProt Q9H4L7); assay: fluorescence polarization; settings: FP: 50 mM HEPES pH 7.5, 2 mM DTT, 10% glycerol, 0.01% CHAPS, 0.01% NP-40, no added salt stated, room temperature 30 min; 10 nM nucleosome or DNA, 0-5 uM …
T3 sequence: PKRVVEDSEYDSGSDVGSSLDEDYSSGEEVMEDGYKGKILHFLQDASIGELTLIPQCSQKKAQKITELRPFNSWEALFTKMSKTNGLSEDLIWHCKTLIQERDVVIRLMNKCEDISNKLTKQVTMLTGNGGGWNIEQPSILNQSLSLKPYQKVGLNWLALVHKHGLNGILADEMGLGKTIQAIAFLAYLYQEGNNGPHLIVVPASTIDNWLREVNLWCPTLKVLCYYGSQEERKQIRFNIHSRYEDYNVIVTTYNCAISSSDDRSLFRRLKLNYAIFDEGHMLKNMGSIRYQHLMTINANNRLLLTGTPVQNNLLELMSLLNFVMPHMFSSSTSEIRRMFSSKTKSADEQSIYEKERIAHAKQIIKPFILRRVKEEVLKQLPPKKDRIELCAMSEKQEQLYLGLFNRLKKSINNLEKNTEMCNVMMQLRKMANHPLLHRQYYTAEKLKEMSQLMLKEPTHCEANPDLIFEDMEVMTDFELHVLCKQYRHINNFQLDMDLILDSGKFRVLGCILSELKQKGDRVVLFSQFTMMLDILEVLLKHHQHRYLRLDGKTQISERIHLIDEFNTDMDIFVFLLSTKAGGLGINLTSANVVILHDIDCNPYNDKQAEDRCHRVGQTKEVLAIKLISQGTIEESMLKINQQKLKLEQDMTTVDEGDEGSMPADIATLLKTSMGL

[4] = target: nucleosome: histone octamer with Alexa Fluor 488 on histone H4 E63C assembled onto a 165 bp DNA (human) (UniProt P04908); assay: fluorescence polarisation; 10 nM Alexa Fluor 488-labeled nucleosome (165 bp DNA), SMARCAD1 titrated 0-5 μM; 2 mM DTT, 10% glycerol, 50 mM HEPES pH 7.5, 0.01% CHAPS, 0.01% NP-40; room temperature, 30 min; hyperbolic fit
[5] = target: nucleosome: histone octamer with Alexa Fluor 488 on histone H4 E63C assembled onto a 165 bp DNA (human) (UniProt P04908)
[6] = target: (H3-H4)2 tetramer (fluorescently labeled with Alexa Fluor 488 on H4 at E63C) (human) (UniProt P68431); assay: fluorescence polarisation; 5 nM Alexa Fluor 488-labeled H2A-H2B dimer or (H3-H4)2 tetramer, SMARCAD1 titrated 0-2500 nM; 2 mM DTT, 10% glycerol, 50 mM HEPES pH 7.5, 0.01% CHAPS, 0.01% NP-40, 300 mM KCl; room temperature, 30 min; hyperbolic fit
[7] = target: T4, Δ350 SMARCAD1, dephosphorylated (human, UniProt Q9H4L7 351-1026, V974A;del1-350); assay: fluorescence polarization; dephosphorylated (CIP); FP: 50 mM HEPES pH 7.5, 2 mM DTT, 10% glycerol, 0.01% CHAPS, 0.01% NP-40, no added salt stated, room temperature 30 min; 10 nM nucleosome or DNA, 0-5 uM SMARCAD1; settings: protein: recombinant; tags: 6xHis; label: Alexa Fluor 488 and Alexa Fluor 647 (labeled PCR primers); blunt
T4 sequence: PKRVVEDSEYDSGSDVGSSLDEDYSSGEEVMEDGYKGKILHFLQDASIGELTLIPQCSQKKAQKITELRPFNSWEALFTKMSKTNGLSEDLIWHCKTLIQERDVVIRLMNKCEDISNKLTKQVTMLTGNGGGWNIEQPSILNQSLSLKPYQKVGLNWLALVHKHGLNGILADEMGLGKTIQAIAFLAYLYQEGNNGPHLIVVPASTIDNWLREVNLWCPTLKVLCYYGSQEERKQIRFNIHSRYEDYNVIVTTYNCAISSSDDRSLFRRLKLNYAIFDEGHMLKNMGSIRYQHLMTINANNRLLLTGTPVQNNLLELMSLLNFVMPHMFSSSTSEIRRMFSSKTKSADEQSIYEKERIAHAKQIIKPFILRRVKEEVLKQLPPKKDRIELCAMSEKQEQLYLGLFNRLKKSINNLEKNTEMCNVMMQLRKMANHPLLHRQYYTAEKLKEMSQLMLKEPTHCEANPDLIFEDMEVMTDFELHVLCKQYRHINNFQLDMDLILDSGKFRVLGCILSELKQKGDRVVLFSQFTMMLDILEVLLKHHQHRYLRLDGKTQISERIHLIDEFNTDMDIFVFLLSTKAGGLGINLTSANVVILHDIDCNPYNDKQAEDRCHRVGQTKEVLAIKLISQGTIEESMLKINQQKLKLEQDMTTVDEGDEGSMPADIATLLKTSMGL

[8] = target: T5, WT SMARCAD1, dephosphorylated (human, UniProt Q9H4L7 1-1026, V974A); assay: as above; settings: protein: recombinant; tags: 6xHis (C- or N-terminal); label: Alexa Fluor 488 and Alexa Fluor 647 (labeled PCR primers); blunt
T5 sequence: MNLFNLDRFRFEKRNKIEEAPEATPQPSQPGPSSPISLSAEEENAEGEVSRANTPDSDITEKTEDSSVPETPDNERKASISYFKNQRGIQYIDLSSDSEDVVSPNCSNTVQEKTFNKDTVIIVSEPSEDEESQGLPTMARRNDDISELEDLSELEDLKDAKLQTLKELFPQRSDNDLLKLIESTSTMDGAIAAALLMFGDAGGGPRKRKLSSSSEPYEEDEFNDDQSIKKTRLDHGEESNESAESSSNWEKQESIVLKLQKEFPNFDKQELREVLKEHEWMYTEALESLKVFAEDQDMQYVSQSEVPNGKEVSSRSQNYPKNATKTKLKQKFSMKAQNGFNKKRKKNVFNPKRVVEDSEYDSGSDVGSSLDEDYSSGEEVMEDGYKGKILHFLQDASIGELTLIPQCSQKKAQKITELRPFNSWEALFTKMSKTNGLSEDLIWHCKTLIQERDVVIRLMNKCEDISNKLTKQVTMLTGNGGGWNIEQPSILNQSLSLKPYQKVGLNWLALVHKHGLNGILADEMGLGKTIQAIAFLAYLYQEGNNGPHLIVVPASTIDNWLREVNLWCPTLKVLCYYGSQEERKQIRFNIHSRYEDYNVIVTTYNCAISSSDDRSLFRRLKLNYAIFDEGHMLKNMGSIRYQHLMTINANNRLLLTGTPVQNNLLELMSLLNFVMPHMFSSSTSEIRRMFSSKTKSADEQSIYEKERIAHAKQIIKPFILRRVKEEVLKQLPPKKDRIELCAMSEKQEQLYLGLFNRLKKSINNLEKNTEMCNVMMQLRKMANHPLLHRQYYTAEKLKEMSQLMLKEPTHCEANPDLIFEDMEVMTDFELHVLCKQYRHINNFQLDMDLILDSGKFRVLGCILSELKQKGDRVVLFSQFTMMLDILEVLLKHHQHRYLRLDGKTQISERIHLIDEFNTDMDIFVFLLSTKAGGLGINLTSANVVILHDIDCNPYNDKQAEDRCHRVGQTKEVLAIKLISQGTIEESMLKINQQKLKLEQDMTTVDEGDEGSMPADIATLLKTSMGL

Work on “CGAGCCAGGCCTGAGAATCCGGTGCCGAGGCCGCTCAATTGGTCGTAGACAGCTCTAGCACCGCTTAAACGCACGTACGCGCTGTCCCCCGCGTTTTAACCGCCAAGGGGATTACTCCCTAGTCTCCAGGCACGTGTCAGATATATACATCCAGGCCTTGTGTCG (double strand) [165 bp 601 DNA]” yielded a Kd [1] of 28 nM and a Kd [2] of 49 nM.

“CGAGCCAGGCCTGAGAATCCGGTGCCGAGGCCGCTCAATTGGTCGTAGACAGCTCTAGCACCGCTTAAACGCACGTACGCGCTGTCCCCCGCGTTTTAACCGCCAAGGGGATTACTCCCTAGTCTCCAGGCACGTGTCAGATATATACATCCAGGCCTTGTGTCG (double strand) [165 bp 601 nucleosome (7N11)]” was tested, and the Kd ([1]; dephosphorylated (CIP)) was 71 nM, the Kd ([2]; phosphorylated) was 213 nM and the Kd [3] was 114 nM.

In the case of “dephosphorylated Δ350 SMARCAD1 (from UniProt Q9H4L7 351-1026) (domain or fragment)”, the Kd [4] is reported as 114 nM.

For “phosphorylated wild type SMARCAD1 (from UniProt Q9H4L7 1-1026) (enzyme)”, the ATP hydrolysis rate with nucleosome as activator (1 μM SMARCAD1, 1 μM nucleosome; NADH-coupled assay) [5] was 30 nM/s and the Kd [6] was 151 nM.

In the case of “phosphorylated Δ350 SMARCAD1 (from UniProt Q9H4L7 351-1026) (domain or fragment)”, the ATP hydrolysis rate with nucleosome as activator (1 μM SMARCAD1, 1 μM nucleosome; NADH-coupled assay) [5] is reported as 118 nM/s and the Kd [6] is reported as 495 nM.

B1: 165 bp 601 DNA (dsDNA)
DNA 1: CGAGCCAGGCCTGAGAATCCGGTGCCGAGGCCGCTCAATTGGTCGTAGACAGCTCTAGCACCGCTTAAACGCACGTACGCGCTGTCCCCCGCGTTTTAACCGCCAAGGGGATTACTCCCTAGTCTCCAGGCACGTGTCAGATATATACATCCAGGCCTTGTGTCG
DNA 2: CGACACAAGGCCTGGATGTATATATCTGACACGTGCCTGGAGACTAGGGAGTAATCCCCTTGGCGGTTAAAACGCGGGGGACAGCGCGTACGTGCGTTTAAGCGGTGCTAGAGCTGTCTACGACCAATTGAGCGGCCTCGGCACCGGATTCTCAGGCCTGGCTCG
For B1, the Kd [7] was 60 ± 18 nM and the Kd [8] was 26 ± 9 nM.
